Test results as given in US20200234789A1, “DESIGNED PROTEINS FOR LIGAND BINDING” (THE REGENTS OF THE UNIVERSITY OF CALIFORNIA, priority 2017, published 2020).

Key:
[1] = Porphyrin binding to apo-protein, electronic absorption spectra ((CF3)4PZn loading)
Experimental: (§1) FIGS. 3A-3D. Biophysical characterization of apo- and holo-PS1. FIG. 3A: Electronic absorption and emission spectra of (CF3)4PZn/PS1 holo-protein and (CF3)4PZn in toluene solvent. […] FIG. 3B: Determination of KD by apo-PS1 titration into a buffer solution (100 mM NaCl, 50 mM NaPi, pH 7.5) of (CF3)4PZn with 1% w/v octyl-b-D-glucopyranoside. […] FIG. 3C: Circular dichroism (CD) spectra of apo- and holo-PS1 in 50 mM NaPi, 100 mM NaCl, pH 7.5 as a function of temperature. The transitions appear reversible based on the fact that the spectra are identical after cooling to room temperature. Units are in molar residue ellipticity. […] FIG. 3D: Pump-probe transient absorption spectra of (CF3)4PZn bound in the interior of holo-PS1 at 21° C. and 100° C. […] Inset exemplifies identical transient dynamics (primarily intersystem crossing from S1 to T1) at ΔAbs.=482 nm (scaled). Experimental conditions: solvent=50 mM NaPi, 100 mM NaCl, pH 7.5; excitation wavelength=600±5 nm; magic-angle polarization between pump and probe pulses; pump-probe cross-correlation of ˜250 fs.
FIG. 10. Absorption spectra of (CF3)4PZn/PS1 and (CF3)4PZn/PS2 complexes. […] Experimental conditions: buffer=100 mM NaCl, 50 mM NaPi, pH 7.5.
A 2-fold excess of the cofactor (CF3)4PZn was added from a 4 mM DMSO stock solution to a 50 mM NaPi, 100 mM NaCl, pH 7.5 buffer with apo-protein (Note that final DMSO concentrations were kept <1%.). Buffer solution of apo-PS1 protein was heated for 5 minutes at 50° C., (CF3)4PZn was then added from the DMSO stock solution, the resultant mixture was vortexed for 5 seconds, and placed back in the heat block at 50° C. for 15 minutes, with vortexing every 3 minutes. The protein/cofactor solution was then spun at 14000×g in a Amicon Ultra-0.5 mL centrifuge filter for 10 min, three times, replacing the buffer to 0.5 mL after each 10 min spin. Finally, the protein solution was spun for 4 min at 12000×g in an Amicon ultrafree-MC GV filter (UFC30GV0S). The holo-PS1 sample was then used for spectroscopic experiments immediately afterward, and diluted to an appropriate concentration if necessary. Binding of (CF3)4PFe was carried out in the same fashion, with the exception that the porphyrin was first dissolved in a stock of DMSO/CHCl3.
Electronic absorption spectra were collected using a Shimadzu UV-1700 UV-Vis spectrophotometer or Cary 5000 spectrophotometer. Steady-state emission spectra were obtained on FLS920P spectrophotometer (Edinburgh Instruments Ltd. Livingston, UK) in 1 cm quartz optical cells. The steady-state emission spectra were corrected using the correction factor generated by the manufacturer.

[2] = Circular dichroism: temperature and GnHCl induced unfolding; assay type: physicochemical; conditions: at 95° C.; CD at 222 nm; 50 mM NaPi, 100 mM NaCl, pH 7.5
Experimental: as §1
FIG. 8. Temperature and GnHCl induced unfolding of apo-PS1. CD spectra at 222 nm of apo-PS1 as a function of temperature and denaturant (Guanidine HCl, GnHCl) concentration in 50 mM NaPi, 100 mM NaCl, pH 7.5 buffer. The midpoint for GnHCl-induced unfolding at 95° C. was approximately 4.5 M. […]

[3] = Hydrogen-deuterium exchange measurements by 2D 15N HSQC NMR; assay type: physicochemical
Experimental: FIGS. 5A-5F. Apo- and holo-PS1 share similar folded cores and differ in the binding region. FIG. 5A: 2D ^1H-^15N HSQC spectra acquired for apo- and holo-PS1. Experimental conditions: 0.78 mM at 298K, 50 mM NaPi, 100 mM NaCl, pH 7.5, in 5% D2O. Resonance assignments are indicated using the one-letter amino acid code. Signals arising from side chains (Asn HD2/ND2, Gln HE2/NE2, Arg HE/NE and Trp HE1/NE1) are also labeled. The residues belonging to the binding region and folded core are color-coded as in (FIG. 5B). Non-helical residues are labeled in cyan font face. […] A dashed box surrounds 90% of the backbone resonances of apo-PS1 and is also placed at the same position in the holo-PS1 spectrum. Arrows point to resonances of residues within the binding region that change dramatically upon binding of the cofactor. FIG. 5B: Solution NMR structures of apo-PS1 and holo-PS1. […] FIG. 5C: Hydrogen-deuterium exchange protection factors (PF) measured for apo- and holo-PS1, mapped onto the centroid structure of holo-PS1. Backbone amide nitrogens of residues with determined PFs are shown as spheres. […]
For the measurements of H/D exchange rates, a series of 2D ^15N HSQC spectra were obtained on a 900 MHz Bruker Avance II spectrometer. The first spectra were recorded 9 minutes after the dilution of 100 μl of a high concentration sample in H2O (2 mM for apo and 1.2 mM for holo) into 200 μl D2O buffer. […]

B1: PS1: de novo designed porphyrin-binding four-helix bundle protein; designed sequence SEQ ID NO:1, expressed His-tag-cleaved sequence SEQ ID NO:2 (protein)
chain: SEFEKLRQTGDELVQAFQRLREIFDKGDDDSLEQVLEEIEELIQKHRQLFDNRQEAADTEAAKQGDQWVQLFQRFREAIDKGDKDSLEQLLEELEQALQKIRELAEKKN
[1]; (CF3)4PZn, based on absorbance at 280 nm and 423 nm, 100 mM NaCl, 50 mM NaPi, pH 7.5
  porphyrin loading: 100%
[1]; adding (CF3)4PZn from organic solution to aqueous PS1
  time of complex formation: within seconds
[1]; complex with (CF3)4PZn
  stability of the (CF3)4PZn complex over time: stable for over a year
[2]
  midpoint for GnHCl-induced unfolding: approximately 4.5 M
[3]
  protection of the backbone surrounding the apolar core from solvent H/D exchange: highly protected from exchange
